The series concerns the molecule itself. The series is described as follows: crystal structure of the NC1 hexamer, 2.0 Å. How it is done:
The heavy atom soak screens were carried out at beamlines 1-5 and 9-2 of Stanford Syncrhortron Radiation Laboratory (SSRL) and beamline X8C of National Synchrotron Light Source (NSLS) at Brookhaven National Laboratory. The Br-MAD data sets used in this study were collected at SSRL and processed using DENZO and […] programs of HKL2000 suite (39). The Br⁻ sites were located using SOLVE program (40) and 37 highest peaks (>6σ) were used for phasing the reflections at 2.2 Å resolution. The resulting phases were improved by solvent flattening using RESOLVE (41) and the electron density map was calculated using FFT program of CCP4 suite (42). Polypeptides of two α1 chains and one α2 chain (chains A-C) were traced using the TOM FRODO graphics program (43). The complete asymmetric unit was generated using non-crystallographic symmetry (“NCS”) relations obtained from Br⁻ sites—first the second trimer (chains D-F) was generated to complete one hexamer and then the second hexamer (chains G-L) was generated from the first hexamer. […] The structure was analyzed using SETOR(45), GRASP(46), and SURFNET(47) graphics software packages and various utility programs in CCP4 suite. The hexamer interface was analyzed using HBPLUS(48) and protein-protein interaction web server (http:/www.biochem.uc1.ac.uk/bsm/PP/server/). […]

B1: type IV collagen α1 chain NC1 domain (bovine lens basement membrane) (other, UniProt Q7SIB2 1441-1669, looked up)
chain: SVDHGFLVTRHSQTTDDPQCPPGTKILYHGYSLLYVQGNERAHGQDLGTAGSCLRKFSTMPFLFCNINNVCNFASRNDYSYWLSTPEPMPMSMAPITGENIRPFISRCAVCEAPAMVMAVHSQTIQIPQCPTGWSSLWIGYSFVMHTSAGAEGSGQALASPGSCLEEFRSAPFIECHGRGTCNYYANAYSFWLATIERSEMFKKPTPSTLKAGELRTHVSRCQVCMRRT
notes: domain: NC1; 5-6 N-terminal and 2 C-terminal residues are disordered in the map; also called α1 NC1; α1(IV) NC1
As for B1, the binding result is recorded as “binds”.

B2: type IV collagen (α1)2.α2 NC1 trimer (bovine lens basement membrane) (other)
chain 1: B1 chain
chain 2: ISIGYLLVKHSQTDQEPMCPVGMNKLWSGYSLLYFEGQEKAHNQDLGLAGSCLARFSTMPFLYCNPGDVCYYASRNDKSYWLSTTAPLPMMPVAEEDIRPYISRCSVCEAPAVAIAVHSQDVSIPHCPAGWRSLWIGYSFLMHTAAGDEGGGQSLVSPGSCLEDFRATPFIECNGARGTCHYYANKYSFWLTTIPEQSFQGTPSADTLKAGLIRTHISRCQVCMKNL
notes: domain: NC1; Two such trimers make the [(α1)2.α2]2 NC1 hexamer that was crystallized. m3 is used for facts told of the trimer-trimer (hexamer) interface as a whole; also called protomer NC1 trimer; half of the [(α1)2.α2]2 NC1 hexamer
Turning to B2, the binding result is “binds”.

For the origin of these results see patent US20030100510A1 (KANSAS UNIVERSITY MEDICAL CENTER, published 2003).
